Source: the nanobody polyreactivity screen of Harvey et al. (2022)

Assay: yeast display, Sf9 membrane polyspecificity reagent, FACS + sequencing; frameworks hold sequencing errors
In short: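 Nanobodies from a synthetic yeast display library (Saccharomyces cerevisiae BJ5465), induced 36–48 hours with galactose, were stained 1 hour at 4 °C with 10% biotinylated, detergent-solubilized Sf9 membrane reagent, enriched on streptavidin microbeads, then FACS-sorted. Anti-HA (expression) and streptavidin (reagent binding) fluorescence set low and high (top ~1%) gates. Polyreactivity labels come from the gate of origin. Genes were colony-PCR amplified, MiSeq 2 × 250 sequenced and filtered by CDR length.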

Sequence	polyreactivity (PSR sort gate)
RDQHVESGGGLVQAGGSLRLSCAASGRTFVPYAMGWYRQAPGKERELVAAISSGGDTNYADSVKGRFTISRDNAKNTVYLQMNSLKPEDTAVYYFAKDLTQIYYGDDYWGQGTQVTVSS	low polyreactivity
QVQLVESGGGLGQAGGSLRLSCAASGRIFSQNAMGWYRQAPGNERELVAAITGNGGDTYYADSVKGRFTISRDNAKNTVYLQMNSLKPEDTAVYYCAARVPPVYGRVGGYHYWGPGTQVTVSS	low polyreactivity
QVQLVESGGGLVQAGGSLRLSCAASGFTFVYYDMGWYRQAPGKERELVAAISRSGGSTYYADSVKGRFTISRDNAQNTVYLQMNSLKPEDTAVYYCAAGKNYGSRLSYEYWGQGTQVTVSS	high polyreactivity
QVQLVESGGGLVQAGGSLRLSCAASGYIFTEYDMGWSRQAPGKERELVAANSESGGSTYYADSVKGRFTISRDNAKNTVYLQMNSLKPEDTAVYYCAADQYYYWYTHQSIGYDYWGQGTQVTVSS	low polyreactivity
QVQLVESGGGLVQAGGSLRLSCAASGFTFADNAMGWYRQATGKERELVAAISWNGGRTFYADSVKGRFTISRDNAKNTVYLQMNSLKPEDSAVYYCNAVFIVRKYTGWSTGEGYWGQGTQVTVSS	high polyreactivity
QVQLVESGGGLFQAGGSLRLSCAASGSTFYAYAIGWYRQAPGKERELVAAITLSGGSTYYADSVKGRFTISRDNAKNTVYLQMNSLKPEDTAVYYCAADQLRCGDYYWGQGTQVTVSS	high polyreactivity
QVQLVESGAGLVQAGGSLRLSCAPSGSIFAAYAMGWYRQAPGKESELVAAIDRGGSTDYADSVKGRFTISRDNAKNTVYLQMNTLKPEDTAVYYCAKGYDYYVRRYYYWGQGTQVTVSS	high polyreactivity
QVQLVESGGGLVQAGGSLRLSCAASGSIFHGYAMGWYRQAPGKERELVAAISKSGGRTYYADSVKGRFTISRDNAKNTVYLQMNSLKPEDTAVYYCAAPATYKYDYWGQGTQVTVSS	high polyreactivity
QVQLVESGGGLVQAGGSLRLSCAASGSIFSIYAMGWYRQAPGKERELVAAITWGGGSTYYADSVKGRFTISRDNAKNTVNLQMNSLKPEDTAVYYCAADSLTWFGTYYYWGQGTQVTVSS	high polyreactivity
QVQLVESGGGLVQAGGSLRLSCAASGSTFYYYAMGWSRQAPGKERELVAAITRGGSTYYADSVKGRFTISRDNAKNTVYLQMNSLRPEDTAVYYCAAKSAYHGLVGGYYYWGQGTQVTVSS	high polyreactivity
QVHLVESGGGLVQAGGSLRLSCAASGRTFRSNAMGWYRQAPGKEREFVAAISGRGGITYYADSVKGRFTISRDNAKNTVYLQMNSLKPEDTAVYYCNRDVKYHDYVYVTAIKSPGYNYWGQGTQVTVSS	low polyreactivity
QVQLVESGGGLVQAGGSLRLSCAASGSIFSYYAMGWYRQAPGKERELVAAITSGGSTYYADSVKGRFTISRDNAKNTVYLQMNSLKPEDTAVYYCAREKWPSQYDYWGQGTQVTVSS	low polyreactivity
QVQLVESGGGLVQAGGSLRLSCAASGRIFSPNAMGWSRQAPGKERELVAAITRGGSTNYADSVKGRFTISRDNAKYTVYLQMNSLKPEDTAVYFCAALLAKTISGRGYNSWGQGTQVTVSS	low polyreactivity
QVQLVESGGGLVQAGGSLRLSSAASGLTFFTYTMGWYRQAPGKERELVATINSSGGTTYYADSVKGRFTISRDNAKNTVYLQMNSLKPEDTAVYFCAKRFSPRYYYWGQGTQVTVSS	high polyreactivity
QVQLVESGGGLVQAGGSLRLSCAASGSTFYSYAMGWYRQAPGKERELVAAISWRGGTTYYADSVKGRFTISRDNAKNTVYLQMNSLKPEDTAVYYCNARFYRWRSYGYDYWGQGTQVTVSS	high polyreactivity
QVQLVESGGGLVQAGGSLRLSCAASGNILGYNAMGWYRQAPGKERELVAAITQSGGSTYYADSVKGRFTISRDNAKNTVDLQMNSLIPEDTAVYYCAAVGYYYSALDMDYWGQGTQVTVSS	low polyreactivity
QVQLVESGGGIVQAGGSLRLSCAASGSTGFNTMGWYRQAPGKERELVAAIRATGGSTYYADSVKGRFTISRDNAKNTVYLQMNSLKPEDTAVYYCAAKWFRQYLRQDRYYYWGQGTQVTVSS	high polyreactivity
QVQLVESWGGLVQAGGSLRLSCAASGRTFKIYTMGWYRQAPGKERELVAAISRGGSTYYADSVKGRFTISRDNAKNTVYLQMNSLKPEDTAVYYCAVDLYYLSSASTRQVRRDYWGQGTQVTVSS	high polyreactivity
QVQLVESAGGLVQAGGTLRLSCAATGRIVYLNAMGWYRQAPGKERELVAAISGSTGSTYYADSVKGRFTISRDNAKNTVYLQMMSLKPEDTAVYYCNAGGVYDEFNYWGQGTQVTVSS	low polyreactivity
QVQLVESGGGLVQAGGSLRLSCAASGRIFSFNAMGWYRQAPGKERELVAAISWSTGSTFYADSVKGRFTISRDNAKNTVYLQMNSLKPEDTAVYYCATGFPHPKRNVNRRNYWGQGTQVTVSS	high polyreactivity
QVQLVESGGGLVQAGGSLRLSCAASGRIFKGNGMGWYRQAPGKERELVAAISSGGTYYADSVKGRFTISRDNAKNTVYLQMNSLKPEDTAVYYCAAQHRGVQVTFGEYDYWGQGTQVTVSS	low polyreactivity
QVQLVESGGGLVQAGGSLRLICAASGSTLFTYAMVWYRQAPGKERELVAAITSSGSTYYADSVKGRFTISRDNAKNTVYLQMNSLKQEDTAVYYCAVPGYRYTNYYYWGQGTQVTVSS	low polyreactivity

Sequence	polyreactivity (PSR sort gate)
QVQLLESGGGLVQAGGSLRLSCAASGRIFNYNVMGWYRQAPGKERELVAAISRRGTSTFYADSVKGRFTISRDNAKNTVYLQMNSLIPVDTAVYYCAADFYSNHYDYWGQGTQVTVSS	high polyreactivity
QVQLVESGGGLVQAGGSLRLSCAASGSIIGRNVMGWYRQAPGKERELVAVITGSGGGTYYADSVKGRFTISRDNAKNTVYLQMNSLKPEDTAVYYCAARKRGTFTYDYWGQGTQVTVSS	high polyreactivity
QVQLVESGGGLVQAGGSLRLSCAASGGLFWTYAMGWYRQAPGKERELVATITSGGSTNYADSVKGRFTISRDNAKNTVYLQMNSLKPEETAVYYCNADWWWGYGYWGQGTQVTVSS	low polyreactivity
QVQLVESGGGLVQAGGSLRLSCAASGSTFTQYVMGWYRQAPGKERELVAAISDSGSTYYADSVKGRFTISRDNAKNTVYLQMNSLKPEDTAVYYCATDVLAWAPYDYWGQGTQVTVSS	low polyreactivity
QVQLVESGGGLVQAGGSLRLSCAASGRILDFNAMGWYRQAPGKERELVAAINNSGGSTYYADSVKGRFTISRDNAKNTVYLQMNSLKPEDTAVYYCARYAIWKRGYWGQGTQVNVSS	low polyreactivity
QVQLVESGGGLVQAGGSLRISSPASGSIFTLYDMGWYRQAPGKERELVSAITEDGASTYYADSVKGRFTISRDIAKNTVYLQMNSLKPEDTAYYYCAAHPTYWPVWYVLYDYWGQGTQVTLSS	low polyreactivity
QVQLVESGGGLVQAGGSLRLSCAASGSTFPDYAMGWYRQAPGKEREFVASITWSDGSTYYADSVKGRFTISRDNAKNTVYLQMNSLKPEDTAVYYCIADYVYYYIPVVYEYDYWGQGTQVTVSS	high polyreactivity
QVQLVESGGGLVQAGGSLRLSCAASGSIFAFYAMGWYRQAPGKERELVAVISASGGSTYYADSVKGRFISRDNAKNTVSLQMNSLKPEDTAVYYCAAGTSTNSGTVPEEEDYWGQGTQVTVSS	low polyreactivity
QLQLVESGGGLLQAGGSLRLSCAAPGSTFAPNTMGWNRQPPGKARELVARITSSDGSTSYADSVKGRFTISRDNAKNTVYLQMNSLKPEDTAVYYCAAQYSYSMDYWGQGTQVTVSS	low polyreactivity
QVQLVESGGGLVQAGGSLRLSCAASGRTFTEYAMGWYRQAHGKERELVARISIGDSTYYADSVKGRFTISRDNAKNTVYLQMNSLKPEDTAVYYCNAEYSRSYRYDEGYWGQGTKVTVSS	low polyreactivity
QVQLVESGGGLVQAGGSLRLSCAASGSTFDNNAMGWYRQAPGKERELVAAISWGGGSTYYADSVKGRFTISRDNAKNTVYLQMNSLKPEDTAVYYCAKLKGTQPNRYDYWGQGTQVTVSS	low polyreactivity
QVQLEESGGGLVQAGGSLRLSCAASGSIFRVYAMGWYRQAPGKERELVAAISQSADSTYYADSVKGRFTILRDNAKNTVYFQMNSLKPEDTAVYYCAAEYPYIYRFDYWGQGTQVTVSS	low polyreactivity
QVQLVESGGGLVQAGGSLRLSCAASGSTFKTYTMGWYRQAPGKEREFVAGITSGGSTSYADSVKGRFTISRDNAKNTVYLQMNSLKQEDTAVYYCAAPDGDTSFSDQAYDYWGQGTQVTVSS	low polyreactivity
QVQLVESGGALVQAGGSLRLSCAASGSTFYGYAMGWYRQATGKERELVASITTRGGRTNYADSVKVRFTISRDNAKNTVYLEMNSLKPEDNSVYYCATYSYVTRYARWGEFDYWGQGTQVTVSS	high polyreactivity
QVQLVESGGGFVQAGGSLRLSCAASGSNLGKNTMGWYRQAPGKERELVATISRSGGSTYYADSVKGRFTISRDNAKNTVYLQMNSLKPEDTAVYYCAARAIRSGYYRYDYWGQGTKVTVSS	high polyreactivity
QVQLVESGGGLVHAGGSLRLSCAASGFTFPNYAMGWYRQAPGKERSLVAAITSGGGRTNYADSVKGRFTISRDNAKNTVYLQMISLKPEDTAVYYCAKTRVRGSEFGYWGQGTQVTVSS	low polyreactivity
QVQLVESGGGLVQAGGSLRLSCAASGRILYVNAMGWSRQAPGKERELVAAISWRGGRTYYADSVKGRFTISRDTAKNTVYLQMNSLKPEDTAVYYCAARARGGYQRDYWGQGTQVTVSS	high polyreactivity
QVQLVESGGGLVQAGGSLRLSCAASGRTFDAYAMGWYRQAPGKERELVAAISSGGSTNYADSVKGRFTISRDHAKNTVYLQMNSLKPEDTAVYYCAAEYIQYLFYSVRVAYDYWGQGTQVTVSS	low polyreactivity
QVQLVESGGGLVQAGGILRLSCAASGSIFYAYAMGWYRQAPGKERELVASITWSGASTYYADSVKGRFTISRDNAKNTVYLQMNSLKPEDTAVYYCAATDQKLSLDYSSYEYWGQGTQVTVSS	low polyreactivity
QVQLVESGGRLVQAGGSLRLSCAASGSTLFAYAMGSYRQAPGKETELVASISSGGNTNYADSVKGRFTISRDNSKNSVYLQMYSLKPEDTAVYYCNAGVPYHYPSYTYLYYYWGQGTQVTVSS	low polyreactivity
QVQLVESGGGLVQAGGSLRLSCAASGFTFSLYAMGWYRQAPGKERELVAAISSRGGTTYYADSVKGRFTISRDNAKNTVYLQMNSLKPEDTAVYYCAARYVYTRSAFDYWGQGTQVTVSS	high polyreactivity
